# In patent US20170306050:
# How the values were obtained:
# [1] = tested on: Pro-MMP9
# [2] = target: α1-antitrypsin (UniProt P01009)
# Chain of α1-antitrypsin (P01009 whole entry, looked up, the tested form may be a part): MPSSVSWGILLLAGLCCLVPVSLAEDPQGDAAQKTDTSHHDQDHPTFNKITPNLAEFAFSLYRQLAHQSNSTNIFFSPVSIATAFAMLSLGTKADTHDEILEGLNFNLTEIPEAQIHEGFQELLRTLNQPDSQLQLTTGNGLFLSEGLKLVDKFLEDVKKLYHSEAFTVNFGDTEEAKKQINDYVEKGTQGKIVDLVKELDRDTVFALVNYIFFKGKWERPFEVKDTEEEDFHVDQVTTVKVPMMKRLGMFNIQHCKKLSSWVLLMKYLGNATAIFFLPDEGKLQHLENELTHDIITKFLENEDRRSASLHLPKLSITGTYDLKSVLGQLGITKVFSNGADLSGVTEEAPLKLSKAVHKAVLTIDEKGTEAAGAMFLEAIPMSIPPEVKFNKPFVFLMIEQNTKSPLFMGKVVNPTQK
# Chain of active MMP9 (chain, as listed by the source): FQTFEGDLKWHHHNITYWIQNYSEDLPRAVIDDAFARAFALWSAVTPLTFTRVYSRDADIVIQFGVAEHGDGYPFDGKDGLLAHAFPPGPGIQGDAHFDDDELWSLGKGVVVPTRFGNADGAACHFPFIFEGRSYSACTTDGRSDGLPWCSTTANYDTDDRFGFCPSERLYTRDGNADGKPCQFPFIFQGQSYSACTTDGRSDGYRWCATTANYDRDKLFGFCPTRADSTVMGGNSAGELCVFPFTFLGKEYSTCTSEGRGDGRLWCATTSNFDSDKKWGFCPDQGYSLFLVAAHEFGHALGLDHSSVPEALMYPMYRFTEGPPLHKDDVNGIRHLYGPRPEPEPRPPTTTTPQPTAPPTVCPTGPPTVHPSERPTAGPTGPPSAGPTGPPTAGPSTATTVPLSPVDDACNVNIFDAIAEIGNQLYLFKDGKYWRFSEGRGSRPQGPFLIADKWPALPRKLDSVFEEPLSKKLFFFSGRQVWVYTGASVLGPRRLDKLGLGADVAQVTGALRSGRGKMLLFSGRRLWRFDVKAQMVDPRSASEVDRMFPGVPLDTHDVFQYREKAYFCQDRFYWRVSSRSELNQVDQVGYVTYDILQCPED
# Chain of active MMP3 (chain, as listed by the source): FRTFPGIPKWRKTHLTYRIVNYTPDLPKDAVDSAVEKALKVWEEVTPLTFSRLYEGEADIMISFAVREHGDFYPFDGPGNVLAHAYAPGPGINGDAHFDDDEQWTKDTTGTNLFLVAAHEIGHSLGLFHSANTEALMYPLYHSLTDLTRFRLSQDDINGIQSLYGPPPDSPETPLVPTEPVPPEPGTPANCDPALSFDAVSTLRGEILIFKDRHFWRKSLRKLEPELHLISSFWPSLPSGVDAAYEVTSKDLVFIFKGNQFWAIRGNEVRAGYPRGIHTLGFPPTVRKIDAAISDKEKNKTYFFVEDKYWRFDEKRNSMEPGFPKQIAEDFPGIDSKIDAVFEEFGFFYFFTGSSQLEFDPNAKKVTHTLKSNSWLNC
Substance,activation of pro-MMP9 (appearance of the active MMP9 fragment by Li-Cor Western blot and increase in gelatinolytic activity) [1],cleavage of α1-antitrypsin by Western blot [2]
active MMP3,Both proteases activated MMP9 in a dose-dependent manner,
active MMP9,,"In the presence of active MMP9 alone, α1-antitrypsin was cleaved from the active form to the inactive form"
active Pseudomonas elastase,Both proteases activated MMP9 in a dose-dependent manner,
